Patent US20050154192A1 (published 2005)

T1: IL13 receptor α1 on TF-1 cells (human, UniProt P78552 22-427)
T1 sequence (looked up): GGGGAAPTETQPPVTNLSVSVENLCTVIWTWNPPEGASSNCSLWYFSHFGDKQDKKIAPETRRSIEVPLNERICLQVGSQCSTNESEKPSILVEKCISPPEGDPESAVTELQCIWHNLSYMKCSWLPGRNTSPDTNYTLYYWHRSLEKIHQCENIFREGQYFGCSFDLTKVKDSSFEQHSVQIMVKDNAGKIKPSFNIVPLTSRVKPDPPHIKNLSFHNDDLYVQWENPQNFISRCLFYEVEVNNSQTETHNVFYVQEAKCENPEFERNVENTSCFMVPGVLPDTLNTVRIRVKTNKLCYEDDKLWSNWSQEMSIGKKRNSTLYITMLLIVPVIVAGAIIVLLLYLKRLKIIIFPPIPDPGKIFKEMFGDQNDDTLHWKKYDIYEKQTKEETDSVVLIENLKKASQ

T2: human IL13 Rα1-Fc (fusion of the extracellular domain of human IL13 receptor α1 and an Fc fragment of human … (human, UniProt P78552 22-343))
T2 construct: extracellular domain; also called soluble IL13 receptor α1-Fc; not shown: human IgG1 Fc domain (cDNA from plasmid pM1304, WO97/42319), joined in frame over a HindIII site
T2 sequence (looked up): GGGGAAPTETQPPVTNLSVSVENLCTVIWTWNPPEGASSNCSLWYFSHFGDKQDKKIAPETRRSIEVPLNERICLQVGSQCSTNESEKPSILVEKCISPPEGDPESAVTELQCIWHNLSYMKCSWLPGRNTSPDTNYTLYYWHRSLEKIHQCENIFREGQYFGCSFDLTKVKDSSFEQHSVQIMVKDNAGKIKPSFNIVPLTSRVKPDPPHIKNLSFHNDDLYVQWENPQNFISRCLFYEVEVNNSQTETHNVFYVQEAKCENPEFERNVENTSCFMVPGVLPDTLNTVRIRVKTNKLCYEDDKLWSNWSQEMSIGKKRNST


What was measured:
[1] = biological target: Recombinant Mouse IL-13 Rα1/Fc Chimera (R&D) (mouse) (UniProt O09030); assay: SPR (BIACORE), same format; rat IgG control, by definition the 0% reference
[2] = biological target: Recombinant Human IL-13 Rα1/Fc Chimera (R&D) (human) (UniProt P78552); assay: as above
[3] = biological target: T1, IL13 receptor α1 on TF-1 cells; assay: cell-based or functional assay
[4] = biological target: T2, human IL13 Rα1-Fc (fusion of the …); assay: SPR (BIACORE), human IL13 Rα1-Fc immobilized on CM5 chip, antibody at 2, 10 and 50 µg/ml
Description: The association constant of the anti-IL13 Rα1 antibody prepared was determined using BIACORE. That is, a CM5 chip (Biacore CO., Ltd.) was activated for 7 minutes according to the manual of Biacore Co., Ltd. and then 100 μg/ml of the human IL13 Rα1-Fc prepared in Example 1 was immobilized thereon. An HBS-EP buffer solution (Biacore Co., Ltd) was flown at a flow rate of 20 μl/min, and then the association constants of four kinds of the antibodies diluted to 2, 10, and 50 μg/ml with the same buffer solution were obtained. The binding antibody was dissociated with a 0.1-M glycine hydrochloric acid buffer solution (pH 3.0) and the chip was then used again. The resulting data was analyzed using analyzing software, BIA evaluation, Biacore Co., Ltd., and the dissociation constant (Kd) thereof was calculated.

Sequence of Recombinant Mouse IL-13 Rα1/Fc Chimera (R&D) (mouse) (O09030 26-340 limits assumed, change not shown): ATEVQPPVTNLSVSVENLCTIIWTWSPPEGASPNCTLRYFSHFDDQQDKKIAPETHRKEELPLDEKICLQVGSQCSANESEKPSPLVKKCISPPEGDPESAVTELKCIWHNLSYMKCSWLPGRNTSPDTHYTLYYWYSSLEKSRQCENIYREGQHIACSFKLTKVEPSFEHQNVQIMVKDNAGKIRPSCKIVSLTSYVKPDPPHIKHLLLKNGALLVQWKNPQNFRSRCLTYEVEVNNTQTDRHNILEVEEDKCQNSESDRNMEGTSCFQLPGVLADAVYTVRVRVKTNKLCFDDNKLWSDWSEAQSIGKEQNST

Row | Mouse IL13/IL13 R binding inhibition rate (%) [1] | Human IL13/IL13 R binding inhibition rate (%) [2] | IC50 (µg/mL) for cell response with IL 4 (1 ng/mL); TF-1 proliferation [3] | IC50 (µg/mL) for cell response with IL 13 (1 ng/mL); TF-1 proliferation [3] | Kd [4] | Molecule
1 | 0% | 0% |  |  |  | rat IgG (control antibody)
2 |  |  | > 10 µg/mL | 1.2 µg/mL | 1.07 nM | F997-20-1 antibody (antibody, IgG1, V domains shown) VH: EVQLQQSGGGLVQPGRSLNLSCAASGFTFNDYYMAWVRQAPKKGLEWVATIIYDGTRTYYRDSVKGRFTISRDNAKSTLYLQMDSLRSEDTATYYCATPWGSWGQGTTVTVSS VL: DIQMTQSPSSMPASLGERVTISCRASQGISNFLNWYQQKADGTIKPLIYYTSNLQSAVPSRFSGSGSGTDYSLTISSLEPEDFAMYYCQQYDSSPWTFGGGTKLEITR
3 |  |  | > 10 µg/mL | 6.6 µg/mL | 4.1 nM | F997-13-1 antibody (antibody, IgG1, V domains shown) VH: EVKLQQSGGGLVQPGRSMKLSCAASGFTFSNYGMAWVRQAPKKGLEWVAYISYDGGSTYYRDSVKGRFTISRDNAKSTLYLQMDSLRSEDTATYHCTTPHYGYKYWYFDFWGQGTTVTVSS VL: DIQMTQSPASLSASLGETVTIECRASEDIYNGLAWYQQKPGKSPQLLIYHANSSHTGVPSRFSGSGSGTQYSLKIDSLQSEDVANYFCQQYYDYPTFGAGTKLELKR
